Measurements as given in patent US12006343B2, “C4BP-based compounds for treating immunological diseases” (FUNDACIO INSTITUT D'INVESTIGACIO BIOMEDICA DE BELLVITGE …, priority 2017, dated 2024).
“Also recorded” adds a separate entry of the source.

B1: C4BP(β−): plasma-purified C4BP minor isoform lacking beta chain; C4BPd3 is the CAIA group given 50 μg sc at days 3 and 5 (protein, UniProt P04003 49-597, looked up)
C4b-binding protein alpha …: NCGPPPTLSFAAPMDITLTETRFKTGTTLKYTCLPGYVRSHSTQTLTCNSDGEWVYNTFCIYKRCRHPGELRNGQVEIKTDLSFGSQIEFSCSEGFFLIGSTTSRCEVQDRGVGWSHPLPQCEIVKCKPPPDIRNGRHSGEENFYAYGFSVTYSCDPRFSLLGHASISCTVENETIGVWRPSPPTCEKITCRKPDVSHGEMVSGFGPIYNYKDTIVFKCQKGFVLRGSSVIHCDADSKWNPSPPACEPNSCINLPDIPHASWETYPRPTKEDVYVVGTVLRYRCHPGYKPTTDEPTTVICQKNLRWTPYQGCEALCCPEPKLNNGEITQHRKSRPANHCVYFYGDEISFSCHETSRFSAICQGDGTWSPRTPSCGDICNFPPKIAHGHYKQSSSYSFFKEEIIYECDKGYILVGQAKLSCSYSHWSAPAPQCKALCRKPELVNGRLSVDKDQYVEPENVTIQCDSGYGVVGPQSITCSGNRTWYPEVPKCEWETPEGCEQVLTGKRLMQCLPNPEDVKMALEVYKLSLEIEQLELQRDSARQSTLDKEL
modifications: alpha-chain-only isoform, plasma-purified

What was measured:
lupus-prone NZBWF1 mice [1] = assay: Renal function (24 h proteinuria) in spontaneous SLE mouse model NZBWF1; format: in vivo; conditions: CYP 50 mg/kg IP every 10 days, up to week 37
Experimental: Mice, Study Design and Follow Up
NZB/NZW F1 or NZBWF1/J (Charles-River), NZB/NZW F1 (Jackson, code 100008) are a hybrid cross between NZB/B1NJ (Jackson, code 000684) Female x NZW/LacJ (Jackson, code 001058) Male. NZBWF1/J mice develop an autoimmune disease resembling human systemic lupus erythematosus. The inventors used 58 females (30-35 g/each) aged 15 weeks for the study (4-5 animals per cage). The animals were maintained under standard laboratory conditions, at 20-24° C. and 40-70% relative humidity, with 12-hour fluorescent light/12-hour dark cycle. They were feed standard diet and tap water ad libitum. […]
Dose Selection and Administration.
The selection of the C4BP(β−) dose for in vivo administration was based in previous studies employing complement-related proteins in immune-inflammatory pathologies. Blom et al. (Blom et al. 2009. Ann. Rheum. Dis., 68:136-42) used the C4BP isoform lacking β chain in experimental collagen-induced arthritis (CIA) and collagen antibody-induced arthritis (CAIA) mice to investigate the influence of complement activity in the treatment of rheumatoid arthritis. These authors administered intraperitoneally C4BP (2 mg/mouse) using a multiple dose-regimen once every two days in preventive and therapeutic experiments. Thus, in the current study, C4BP(β−) was administered both intraperitoneally (IP) and subcutaneously (SC) into NZBWF1 mice for three months (between six and nine months of age).
Alperovich et al (Alperovich et al. 2007. Lupus, 16:18-24) administered cyclophosphamide (CYP) to NZBWF1 mice at 50 mg/kg IP every 10 days.
(§1) Both IP and SC administrations for C4BP(β−), CYP and PBS (150 μl/each) were performed with a 25-gauge needle during 30 s, after rinsing the skin with 70% ethanol.
(§2) The detailed administration schedule was as follows (Table 5):
Body weight was determined twice monthly from the beginning to the end of follow-up. Mice were placed in metabolic cages to collect 24 h urine specimens before the onset of treatment and monthly thereafter. Blood was obtained from the tail vein at monthly intervals.
Renal Function Analysis: Proteinuria
24 h urinary protein was determined by pyrogallol red (Olympum Autoanalyzer AU400, Hamburg, Germany) in the Veterinary Clinical Biochemistry Laboratory from Universitat Autonoma de Barcelona.
(§3) One-way analysis of variance (ANOVA) with post hoc tests was performed to compare proteinuria throughout the follow up. Survival data were analyzed using Kaplan-Meier curves and long-rank test. P value<0.05 was considered significant. Data are expressed as mean±SEM.

lupus-prone NZBWF1 mice [2] = assay: Kaplan-Meier survival in spontaneous SLE mouse model NZBWF1; format: in vivo; conditions: CYP 50 mg/kg IP once every 10 days
Experimental: NZBWF1/J mice develop an autoimmune disease resembling human systemic lupus erythematosus. […] The animals were maintained under standard laboratory conditions, at 20-24° C. and 40-70% relative humidity, with 12-hour fluorescent light/12-hour dark cycle. They were feed standard diet and tap water ad libitum.
as §1, §2, §3

NZBWF1 mice [3] = format: in vivo, mouse; conditions: treatment weeks 24-36
Experimental: The animals were observed daily throughout the experimental period to check out any local and systemic reaction to the treatment, as well as other signs of illness and/or behavioral changes in order to obtain tolerance and toxicological information. Body weight was determined twice monthly from the beginning to the end of follow-up. Mice were placed in metabolic cages to collect 24 h urine specimens before the onset of treatment and monthly thereafter. Blood was obtained from the tail vein at monthly intervals.

NZBWF1 mice [4] = conditions: CYP 50 mg/kg IP every 10 days; Alperovich et al. 2007; cited from earlier work
[5] = system: human monocyte-derived DCs; assay: Immunomodulatory activity over human monocyte-derived DCs: CD83/CD86 surface expression by flow cytometry after LPS maturation; format: cell-based; conditions: FIG. 4
Experimental: In Vitro Functional Assessment of the Immunomodulatory Activity of Full-Length C4BP(β−) and C4BP(β−) Variants Over DCs
The inventors used for the in vitro study both C4BP(β+) (WT) and recombinant C4BP(β−) isoforms, and the above-referred mutants or variants: Mutant 1 and Mutant 2. C4BP(β+) isoforms refer to the major C4BP α7β1 plus the minor C4BP α6β1 isoforms (both in complex with ProS) purified from pooled human plasma.
RPMI 1640 was supplemented with 100 μg/ml of streptomycin, 100 IU/ml of penicillin, 2 mM L-glutamine (all from Invitrogen, Carlsbad, CA) and 10% heat-inactivated fetal bovine serum (Linus, Cultek, Spain) (complete medium), unless otherwise stated.
Peripheral blood mononuclear cells (PBMCs) were obtained from buffy coat preparations collected from healthy donors from the Blood and Tissue Bank (Barcelona, Spain) after Ficoll-Paque™ density centrifugation (GE Healthcare Bio-Sciences AB; Uppsala, Sweden). For surface phenotype determination, monocytes were plated at 1×10^6 cells/ml in 60 mm culture plates (Corning, Spain), in RPMI 1640 medium without serum, and allowed to adhere for 2 h at 37° C. in 5% CO2. The non-adherent cells were removed by washing in PBS.
Monocyte-derived DCs were generated supplementing the monocyte cultures with complete RPMI 1640 medium plus GM-CSF (800 UI/ml) and IL-4 (500 UI/ml) (both from Gentaur, Kampenhout, Belgium) at day 0 and day 3 of culture. For DC maturation, at day 5 iDCs were further stimulated for 48 h with 5 μg/ml LPS (Escherichia coli 055.B5, Sigma L2880, Copenhagen, Denmark).
Staining using the fluorescent dye 7-amino-actinomycin D (7-AAD) (BD Pharmigen) and flow cytometry analysis was employed to assess the viability status of C4BP-treated and untreated DCs.
Cell surface phenotypes were analyzed by flow cytometry using the following mAbs: FITC-conjugated anti-CD83 (HB15a) and PE-conjugated anti-CD86 (HA5.2B7) (all from Beckman-Coulter). The respective isotype controls FITC-conjugated anti-IgG2b (H2) and PE-conjugated anti-IgG2b (H2), were from the same commercial sources. After washing with PBS, cells were subsequently stained with 3 μl mAb/10^5 cells in 100 μl of FACS buffer (PBS containing 1% BSA and 0.1% sodium azide) for 20 min at room temperature. To exclude dead cells and debris, DCs were gated according to forward scatter (FSC) and side scatter (SSC) parameters. Stained cells were analyzed using a FACSCalibur (Becton Dickinson, Franklin Lakes, NJ) equipped with CellQuestPro software (Becton Dickinson).
In Vitro Functional Assessment of C4BP(β−) Immunomodulatory Activity Over DCs
The inventors used for the in vitro study both C4BP(+) and C4BP(β−) isoforms. C4BP(3+) isoforms refer to the major C4BP α7β1 plus the minor C4BP α6β1 isoforms (both in complex with ProS) purified from pooled human plasma, as previously described (Dahlbäck B. 1983. Biochem J., 209:847-56).

[6] = system: Balb/c male mice, CAIA model; format: in vivo, mouse
From the text: Collagen-antibody induced arthritis (CAIA) is a simple mouse model of human rheumatoid arthritis (RA) induced by the systemic administration of a cocktail of monoclonal antibodies directed against conserved auto-antigenic collagen type II epitopes, followed by a single injection of lipopolysaccharide (LPS). CAIA is a useful model to study the effector inflammatory phase of arthritis without involving the priming phase of the immune response. The murine CAIA model shares several clinical, immunological and pathological features with RA. Therefore, this model is useful to study the pathogenic mechanisms involved in RA disease as well as for testing new therapies.
Balb/c male mice aged 7-8 weeks were supplied by Envigo. The animals were acclimated during 12 days. The animals were maintained in an environmentally controlled room with ventilation, temperature (22±2° C.), relative humidity (35-65%), and cycle light/dark (12 h/12 h). The animals were housed in groups of 3-5 animals/cage. The maintenance diet was supplied by Harlan Interfauna Ibérica, S. L. (“2014 Harlan Teklad Global Diets”) and they were feed diet and water ad libitum.
Plasmatic C4BP(β−) was supplied at a concentration of 6.2 mg/ml. C4BP(β−) solutions were prepared to the desired concentration 0.33 mg/ml (for 50 μg doses) by dilution with Dulbecco's phosphate-buffered saline (DPBS) of C4BP(β−) 6.2 mg/ml stock solution.
Two reference compounds were used: dexamethasone (Sigma, Ref. D1756) and Enbrel® (etanercept) (Pfizer, Ref. 655950).
Reference compound dexamethasone was dissolved in vehicle (0.1% Tween-80+99% carboxymethyl cellulose (CMC) (0.5% w/v) in water at a concentration of 0.1 mg/ml.
Enbrel® was prepared at 6 mg/ml in DPBS by dilution of 50 mg/mL stock solution.
Experimental Procedure Day 0: Arthritis Induction
On day 0, animals for experimental group C4BPd3 were randomly selected (n=8) and identified using tail code numbers and weighted.
Each mouse was sensitized by the administration of 2 mg anti-type II collagen antibodies cocktail (ArthritoMAB™ cocktail solution, 0.2 mL, i.v., day 0) in the caudal vein.
Day 3: LPS Synchronization
Animals were intraperitoneally administered with 0.1 mL of LPS solution (0.7 mg/ml, 70 μg/animal).
50 μg of C4BP(β−) were administered subcutaneously at day 3 to treatment group C4BPd3.
50 μg of C4BP(β−) were administered subcutaneously at day 5 to treatment group C4BPd3.
Day 5: Animal Distribution
On day 5 after sensitization, the rest of the animals developing clinical signs of arthritis (n=18) were evaluated and distributed in base of CAIA+incidence. Animals were homogeneously randomized (arthritis score) into the CAIA control group, dexamethasone (1 mg/kg at days 5-11, p.o.) and Enbrel®-treated groups (30 mg/kg at days 5-11, s.c.) (n=6). Animals were identified using tail code numbers and weighted.
Group 2 was not included in the distribution because of the previous test item administration.
The arthritis score was determined using the criteria of Table 9.
Treatment: • C4BPd3 group: 50 μg of C4BP(β−) were subcutaneously injected to animals on days 3 and 5. Volume: 0.150 mL. • Reference compound treatments and CAIA control groups (days 5-11): • Enbrel®: 30 mg/kg of Enbrel® was subcutaneously administered to Enbrel group from days 5 to 11. Volume: 5 mL/kg. • Dexamethasone: 1 mg/kg dexamethasone was orally administered to dexamethasone group from days 5 to 11. Volume: 10 mL/kg. • CAIA control group: 0.150 mL of DPBS was subcutaneously administered from days 5 to 11. Arthritis Monitoring:
Body weights were registered daily from days 0-12 in C4BPd3 and from days 5-12 in CAIA control, dexamethasone and Enbrel® groups. Arthritis scores were determined by the same observer in order to avoid observer bias.
The study was finished at day 12.
Animals were anesthetized with isoflurane. Ankles and wrists thickness were measured using a dial thickness gauge. Serum samples were collected and stored at −20° C. […]

Row | Molecule | development of proteinuria (lupus-prone NZBWF1 mice [1]) | survival (lupus-prone NZBWF1 mice [2]) | toxicity and behavioral changes (NZBWF1 mice [3]) | histological lesions (NZBWF1 mice [4]) | serum anti-DNA antibodies (NZBWF1 mice [4]) | semi-mature, anti-inflammatory phenotype conferred to LPS-matured MoDCs (immunomodulatory activity) ([5]; MoDCs pre-incubated with 5 μg/ml protein, LPS challenge) | CD83 and CD86 surface marker expression ([5]; human MoDCs, 5 μg/ml C4BP isoform, LPS 5 μg/ml) | protection lasting until day after the arthritis induction ([6]; 50 μg sc at days 3 and 5) | inhibition of arthritis score vs. CAIA controls AUC ([6]; C4BP(β−) 50 μg sc days 3 and 5, dexamethasone 1 mg/kg po days 5-11) | ankle thickness ([6]; day 12, C4BP(β−) 50 μg sc d3 and d5, dexamethasone 1 mg/kg po d5-11, Enbrel 30 mg/kg sc d5-11) | wrist thickness vs. CAIA control ([6]; day 12, regimens as Table 8) | body weight vs CAIA control group ([6]; mouse, in vivo) | arthritis scores / progression of arthritis ([6]; regimens as Table 8, vs CAIA control group)
1 | O=P1(N(CCCl)CCCl)NCCCO1 (centres unmarked) [CYP, Cyclophosphamide, reference compound] | prevented the development of proteinuria | survived throughout the period of observation; also recorded: increased survival | neither toxicity nor behavioral changes were observed | arrested and reversed almost all histological lesions | appropriately controlled |  |  |  |  |  |  |  | 
2 | B1 |  |  | neither toxicity nor behavioral changes were observed |  |  | able to confer an analogous semi-mature, anti-inflammatory phenotype | restrain similarly CD83 and CD86 surface marker expression | ≥ 12 days | 47% | 2.74±0.08 mm | No changes | No remarkable differences | significantly ameliorated the progression of arthritis
